According to publication PMC3788760:
pKd: −log10 of the molar value.

Assays:
[1] = target: a-domain of human PDI (human)
[2] = target: full-length human protein disulfide isomerase (PDI) (human) (UniProt P07237)
[3] = target: human PDI fragment abb’xa’ (human)
[4] = target: a-domain of human PDI (human); experiment: ITC; 37.0°C; VP-ITC; 200 µM Tau244–372 in the syringe injected into 8.1 µM full-length PDI or domain a in the cell; 10 mM HEPES pH 7.4, 100 mM NaCl, no DTT; single set of identical sites model
[5] = target: full-length human protein disulfide isomerase (PDI) (human) (UniProt P07237); experiment: as above
[6] = target: a-domain of human PDI (human); experiment: ITC; 25.0°C; VP-ITC; 200 µM Tau244–372 (or 40 µM full-length Tau) in the syringe injected into 8.1 µM PDI or fragment (or 3.24 µM PDI) in the cell; 10 mM HEPES pH 7.4, 100 mM NaCl, no DTT; single set of identical sites model
[7] = target: full-length human protein disulfide isomerase (PDI) (human) (UniProt P07237); experiment: as above
[8] = target: human PDI fragment abb’xa’ (human); experiment: as above

Chain of human Tau fragment Tau244–372 (P10636 561-689): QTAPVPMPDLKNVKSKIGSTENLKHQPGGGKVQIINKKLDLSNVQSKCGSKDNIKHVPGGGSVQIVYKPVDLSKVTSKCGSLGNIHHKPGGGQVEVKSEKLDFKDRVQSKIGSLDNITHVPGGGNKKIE

human Tau fragment Tau244–372 (from UniProt P10636-8 244-372) (domain or fragment)
lag time of Tau244–372 fibrillization (ThT, 37°C), 0–20 µM domain a (184 min without PDI); value at 20 µM [1]: 253 min | rate constant k for the growth of Tau244–372 fibrils (ThT), 0–20 µM domain a (falls from 36.7 without PDI); value at 20 µM [1]: 0.0176 min⁻¹ | t m of Tau244–372 fibrillization (ThT), 0–20 µM domain a (238.3 min without PDI); value at 20 µM [1]: 366 min | lag time of Tau244–372 fibrillization (ThT) with 100 g/l Ficoll 70, 20 µM full-length PDI (∼0 without PDI) [2]: 44.8 min | lag time of Tau244–372 fibrillization (ThT, 37°C, 10 µM Tau244–372, heparin, 1 mM DTT), 0–20 µM full-length PDI (184 min without PDI); value at 20 µM [2]: 242 min | rate constant k for the growth of Tau244–372 fibrils (ThT) with 100 g/l Ficoll 70, 20 µM full-length PDI (54.9 without PDI) [2]: 0.0314 min⁻¹ | rate constant k for the growth of Tau244–372 fibrils (ThT), 0–20 µM full-length PDI (falls from 36.7 without PDI); value at 20 µM [2]: 0.0224 min⁻¹ | t m (time to 50% of maximal ThT fluorescence) of Tau244–372 fibrillization, 0–20 µM full-length PDI (238.3 min without PDI); value at 20 µM [2]: 331 min | t m of Tau244–372 fibrillization (ThT) with 100 g/l Ficoll 70, 20 µM full-length PDI (11.6 min without PDI) [2]: 108 min | lag time of Tau244–372 fibrillization (ThT, 37°C), 0–20 µM abb’xa’ (184 min without PDI); value at 20 µM [3]: 247 min | rate constant k for the growth of Tau244–372 fibrils (ThT), 0–20 µM abb’xa’ (falls from 36.7 without PDI); value at 20 µM [3]: 0.0233 min⁻¹ | t m of Tau244–372 fibrillization (ThT), 0–20 µM abb’xa’ (238.3 min without PDI); value at 20 µM [3]: 333 min | pKd [4]: 5.87 | dH [4]: -4.34 kcal/mol | stoichiometry N [4]: 0.56 | pKd [5]: 5.32 | dH [5]: -9.27 kcal/mol | stoichiometry N [5]: 1.02 | pKd [6]: 6.32 | dH [6]: -4 kcal/mol | stoichiometry N [6]: 0.489 | pKd [7]: 5.46 | dH [7]: -8.6 kcal/mol | stoichiometry N [7]: 0.8 | pKd [8]: 5.13 | dH [8]: -5.9 kcal/mol | stoichiometry N [8]: 0.97
